Article PMC7721647, “The Human RNA Helicase DDX21 Presents a Dimerization Interface Necessary for Helicase Activity” (iScience, 2020)

Columns and labels:
[1] = target: T1, DDX21ΔN monomer (human, UniProt Q9NR30 186-783, L611R;A612R;A613R;A614R;L615R;A616R); test: fluorescence polarization; 50 mM KCl; FP: 50 mM Tris pH 7.5, 50 mM KCl, 5 mM MgCl2, no ATP; Hill-slope fit; temperature not given in the material; settings: protein: recombinant; label: 5'-FAM; G4
T1 sequence: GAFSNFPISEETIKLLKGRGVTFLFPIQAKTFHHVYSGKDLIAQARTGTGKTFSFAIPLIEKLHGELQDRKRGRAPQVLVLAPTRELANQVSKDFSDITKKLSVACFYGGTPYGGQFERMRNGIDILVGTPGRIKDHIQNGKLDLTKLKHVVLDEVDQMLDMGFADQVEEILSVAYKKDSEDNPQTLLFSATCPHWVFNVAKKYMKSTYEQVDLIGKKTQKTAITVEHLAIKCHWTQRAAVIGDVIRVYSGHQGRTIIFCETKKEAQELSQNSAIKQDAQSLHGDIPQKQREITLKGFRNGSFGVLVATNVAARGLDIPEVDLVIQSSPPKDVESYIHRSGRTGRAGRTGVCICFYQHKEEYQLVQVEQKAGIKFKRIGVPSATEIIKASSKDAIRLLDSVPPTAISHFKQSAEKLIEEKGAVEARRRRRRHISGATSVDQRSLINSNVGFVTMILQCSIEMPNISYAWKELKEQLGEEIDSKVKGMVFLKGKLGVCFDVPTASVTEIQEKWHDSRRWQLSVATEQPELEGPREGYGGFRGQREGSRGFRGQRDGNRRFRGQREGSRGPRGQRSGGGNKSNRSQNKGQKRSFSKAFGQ

[2] = target: T2, DDX21Fl monomer (human, UniProt Q9NR30 1-783, L611R;A612R;A613R;A614R;L615R;A616R); test: as above; settings: protein: recombinant; label: 5'-FAM; G4
T2 sequence: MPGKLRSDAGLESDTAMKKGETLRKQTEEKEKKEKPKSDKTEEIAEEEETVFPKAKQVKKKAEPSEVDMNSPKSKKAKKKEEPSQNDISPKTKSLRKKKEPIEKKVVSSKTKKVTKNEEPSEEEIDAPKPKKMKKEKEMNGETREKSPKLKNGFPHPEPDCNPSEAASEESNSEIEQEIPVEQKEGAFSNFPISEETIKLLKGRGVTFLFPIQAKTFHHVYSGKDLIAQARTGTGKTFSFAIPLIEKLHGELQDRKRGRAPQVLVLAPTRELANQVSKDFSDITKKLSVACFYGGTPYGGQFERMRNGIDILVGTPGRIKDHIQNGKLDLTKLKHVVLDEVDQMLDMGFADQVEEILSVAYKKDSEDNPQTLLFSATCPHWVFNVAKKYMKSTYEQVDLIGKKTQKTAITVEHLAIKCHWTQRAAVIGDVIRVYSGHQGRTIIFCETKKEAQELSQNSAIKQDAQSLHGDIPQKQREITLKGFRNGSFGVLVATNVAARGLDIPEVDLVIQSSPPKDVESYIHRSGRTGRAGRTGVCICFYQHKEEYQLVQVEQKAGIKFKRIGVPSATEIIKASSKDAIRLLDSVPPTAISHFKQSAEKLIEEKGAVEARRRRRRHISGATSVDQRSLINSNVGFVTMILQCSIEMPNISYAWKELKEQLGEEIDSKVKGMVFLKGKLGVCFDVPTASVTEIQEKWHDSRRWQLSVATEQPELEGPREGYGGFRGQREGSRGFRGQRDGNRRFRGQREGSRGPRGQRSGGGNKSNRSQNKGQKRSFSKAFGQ

[3] = target: T3, DDX21Fl (human, UniProt Q9NR30 1-783); test: fluorescence polarization; no ATP; 50 mM KCl; FP: 50 mM Tris pH 7.5, 50 mM KCl, 5 mM MgCl2, no ATP; Hill-slope fit; temperature not given in the material; settings: protein: recombinant; tags: N-terminal Trx-His6, cut with thrombin; chain copies: 2; label: 5'-FAM; G4
T3 sequence: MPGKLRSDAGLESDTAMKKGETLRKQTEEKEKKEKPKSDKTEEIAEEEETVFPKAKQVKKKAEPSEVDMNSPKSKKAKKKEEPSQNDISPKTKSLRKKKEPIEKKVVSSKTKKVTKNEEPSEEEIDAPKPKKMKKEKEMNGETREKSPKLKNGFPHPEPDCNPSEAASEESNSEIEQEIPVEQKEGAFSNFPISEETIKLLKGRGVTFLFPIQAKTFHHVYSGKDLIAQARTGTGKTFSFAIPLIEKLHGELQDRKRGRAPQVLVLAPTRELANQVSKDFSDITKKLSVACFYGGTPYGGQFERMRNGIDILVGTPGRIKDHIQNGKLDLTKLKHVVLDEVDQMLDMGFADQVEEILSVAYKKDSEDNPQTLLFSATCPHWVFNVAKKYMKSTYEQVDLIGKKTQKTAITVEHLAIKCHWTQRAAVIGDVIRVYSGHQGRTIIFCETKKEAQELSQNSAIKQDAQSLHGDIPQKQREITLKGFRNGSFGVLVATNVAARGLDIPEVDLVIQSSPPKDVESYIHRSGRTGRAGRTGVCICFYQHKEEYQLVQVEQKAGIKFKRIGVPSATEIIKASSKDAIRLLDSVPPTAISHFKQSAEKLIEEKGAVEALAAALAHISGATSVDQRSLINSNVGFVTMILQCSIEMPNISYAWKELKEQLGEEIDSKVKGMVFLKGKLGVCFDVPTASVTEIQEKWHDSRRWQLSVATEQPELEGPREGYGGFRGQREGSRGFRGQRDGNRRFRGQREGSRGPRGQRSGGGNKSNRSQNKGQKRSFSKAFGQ

B1: Q2 RNA G-quadruplex (structured_RNA)
RNA: GUUGGGGCGGGCGUUGGGUUUGGGGGGACG
Kd [1]: 2.9 ± 0.3 nM
Kd [2]: 9.8 ± 0.9 nM
Kd [3]: 2.6 ± 0.1 nM
